Results from patent US20260152729A1, “NOVEL NKR VARIANTS FOR INCREASED PRODUCTION OF ISOBUTANOL” (Gevo, Inc., priority 2020, published 2026).
Where a chain is given by its changes, count along the chain named. In names and notes the source's numbering stands.

B1: V1: Se1_NKR Gen6 variant with mutations M77I, V91I, K290A, Q330N as printed in Table 5; e.g. SEQ ID NO: 90 (protein, listed as Slackia exigua)
chain: MSVKTKEKEMAVTILYEQDVDPKVIQGLKVGIIGYGSQGHAHALNLMDSGVDVRVGLREGDSDWKTAEEAGLKVTDIDTAAEEADVIMVLIPDEVQPKVYQEHIAAHLKAGNTLAFAHGFNIHYGYIVPPEDVNVIMCAPKGPGHIVRRQFTEGSGVPDLACVQQDATGNAWDIVLSYCWGVGGARSGIIKATFAEETEEDLFGEQAVLCGGLVELVKAGFETLTEAGYPPELAYFECYHEMKMIVDLMYESGIHFMNYSISNTAEYGEYYAGPKVINEQSREAMKEILARIQDGSFAQEFVDDCNNGHKRLLEQREAINTHPIETTGARIRSMFSWIKKEDLEHHHHHH
modifications: SITE 1..350 Se1_NKR_v1 protein
B2: V48: Se1_NKR Gen6 variant with mutations G31A, M77I, Q330N as printed in Table 5; e.g. SEQ ID NO: 92 (protein, listed as Slackia exigua)
chain: B1 chain with G31A, I91V, A290K
modifications: SITE 1..350 Se1_NKR_v48 protein
B3: V65: Se1_NKR Gen6 variant with mutations G31A, V91I, Q330N as printed in Table 5; e.g. SEQ ID NO: 94 (protein, listed as Slackia exigua)
chain: B1 chain with G31A, I77M, A290K
modifications: SITE 1..350 Se1_NKR_v65 protein
B4: Se1_NKR: NADH-dependent ketol-acid reductoisomerase from Slackia exigua (S. exigua KARI, SEQ ID NO: 2); parent enzyme of the variants (protein, listed as Slackia exigua)
chain: MSVKTKEKEMAVTILYEQDVDPKVIQGLKVGIIGYGSQGHAHALNLMDSGVDVRVGLREGSSSWKTAEEAGLKVTDMDTAAEEADVIMVLVPDEIQPKVYQEHIAAHLKAGNTLAFAHGFNIHYGYIVPPEDVNVIMCAPKGPGHIVRRQFTEGSGVPDLACVQQDATGNAWDIVLSYCWGVGGARSGIIKATFAEETEEDLFGEQAVLCGGLVELVKAGFETLTEAGYPPELAYFECYHEMKMIVDLMYESGIHFMNYSISNTAEYGEYYAGPKVINEQSREAMKEILKRIQDGSFAQEFVDDCNNGHKRLLEQREAINTHPIETTGAQIRSMFSWIKKED

Experiments:
Isobutanol Production = test: Simple shake flask fermentation, final relative isobutanol concentration; type: cell-based; settings: enzyme on vector; for Isobutanol Concentration relative to Se1_NKR control (WT): final concentration
From the text: This improvement in isobutanol production is expected to increase with multiple copies of the Se1_NKR_v1 variant enzyme incorporated into the host cell genome.

[1] = KARI enzyme Ki assay (product inhibition) with NADH, purified enzymes; type: biochemical, Slackia exigua; settings: for catalytic efficiency using KM apparent = KM*(1+[product]/Ki), compared to Se1_NKR: 1 mM DHIV; for IC50 / Ki: 1 mM 2-acetolactate, 0-40 mM R-DHIV; for catalytic efficiency (KM apparent) versus increasing concentrations of DHIV (FIG. 14A-B): both conditions (33° C., pH 6.8 and 30° C., pH 7.0)
Protocol: (§1) In this example, three different KARI Gen6 variant enzymes (v1, v48, and v65) and parent enzyme Se1_NKR_gen 6 were screened for their activity with NADH as cofactor. The enzymes were expressed E. coli, and resulting transformants were cultivated in shake flask fermentations as described below and samples were taken after 44h, centrifuged at 4000×g for 10 mins at 4° C. and the cell pellets were stored at −80° C. until analysis. The pellets were lysed by bead beating and the lysates were analyzed by KARI activity assay as described below using NADH and NADPH as cofactors.
(§2) KARI Enzyme Assay: The assay and no substrate control reactions were performed in triplicate for each sample. For the KM assay, the reaction samples comprised 100 mM potassium phosphate, pH 6.8 or 7, 10 mM MgCl2, 1 mM DTT, 200 μM NADH, 0-10 mM 2-acetolactate, and 0.1 mg/mL of enzyme. For the Ki assay, the reaction samples comprised 100 mM potassium phosphate, pH 6.8 or 7, 10 mM MgCl2, 1 mM DTT, 200 μM NADH, 1 mM 2-acetolactate, 0-40 mM R-DHIV, and 0.1 mg/mL of enzyme. For the no substrate controls, the 2-acetolactate was substituted with water. 10 μL of each lysate were transferred into a 96 well half area assay plate. The reaction was started with 90 μL of reaction buffer to each well using a multichannel pipette. The samples were mixed immediately. The samples were read at 340 nm every 10 seconds for 5 minutes.
(§3) The purified enzymes encoded by Se1_NKR_Gen6 (Se1), Se1_NKR_v1 (v1), Se1_NKR_v48 (v48), and Se1_NKR_v65 (v65) under two conditions: 33° C. at pH 6.8 and 30° C. at pH 7 were characterized.
In order to determine the impact of all three parameters (kcat, KM, and Ki) to more closely determine the impact of the new variants in vivo, the catalytic efficiency for each enzyme using the KM apparent, which is equal to KM*(1+[product]/Ki), was calculated. […] At this DHIV concentration level, in vivo, at 33° C., pH 6.8, m48 would be 157%, Se1_NKR_v1 would be 139%, and Se1_NKR_v65 would be 118% improved compared to Se1_NKR. For example, in vivo, cells expressing Se1_NKR-v48, it would be expected that 16 fewer copies of the enzyme could potentially achieve 36% less protein while achieving 0.35 g/g yeast efficiency.

[2] = KARI enzyme KM assay with NADH, purified enzymes; type: biochemical, Slackia exigua; settings: for Vmax: 0.1 mg/mL of enzyme
Protocol: as §1, §2, §3

[3] = test system: isobutanol producing yeast strains; test: Genome scale metabolic modeling (iMM904) of isobutanol yield, batch simulation; design: species or system S. cerevisiae; settings: cells with 16 fewer copies of the enzyme, 36% less protein
Protocol: The iMM904 metabolic reconstruction of S. cerevisiae metabolism served as the basis of the model. The model consists of a matrix of stoichiometric coefficients that represent metabolic and transport reactions encoded by 904 genes. Reactions were added as new columns to the matrix while new rows were added for additional metabolites. The native pathway for making isobutanol in the yeast mitochondria was turned off. A summary of these changes is found in Table 2 below. With these changes made, the maximum isobutanol yield from glucose in the model was approximately 0.38 g/g. If the model was altered to not produce glycerol, the yield increased to 0.41 g/g.
With more reactions than metabolites, metabolic networks have a near infinite number of solutions for any given condition. In flux balance analysis, the flux distribution is obtained by finding the solution that maximizes an objective function. […] Each flux is bounded by known limits of each reaction, though the bounds are mostly set by thermodynamic reversibility. […]
While all other reactions in the isobutanol pathway were set by reversibility only, the upper bound of flux through NKR (vnkr) was set by the kinetics of Se1 and Se2 NKR. Flux was calculated by the following equation: […]
The benefits of improving either NKR enzyme in a strain with an equal number of both was calculated to predict which enzyme was best to engineer. […]

[4] = DHIV inhibition constant of Se1_NKR and Se2_NKR, as set in the model; type: biochemical; settings: parameter set in the model; read-out: KiDHIV
From the text: (§4) Where nNKR is the number of copies of NKR integrated into the yeast genome, kcatis the first order rate constant, AL is the cytosolic concentration of acetolactate, Km is the Michaelis constant for acetolactate, DHIV is the concentration of DHIV, and KiDHIV is the inhibition constant for DHIV. […] This also assumes that all copies of NKR are expressed equally regardless of promotor or where it is integrated in the genome.

[5] = Kinetic parameters of Se1_NKR and Se2_NKR for acetolactate, as set in the model; type: biochemical; settings: parameter set in the model
From the text: as §4

[6] = generally, under the two conditions

Row | Molecule | Isobutanol Concentration relative to Se1_NKR control (WT) (Isobutanol Production) | catalytic efficiency using KM apparent = KM*(1+[product]/Ki), compared to Se1_NKR ([1]; 33° C., pH 6.8) | IC50 ([1]; 30° C., pH 7) | Ki ([1]; 30° C., pH 7) | IC50 ([1]; 33° C., pH 6.8) | Ki ([1]; 33° C., pH 6.8) | catalytic efficiency (KM apparent) versus increasing concentrations of DHIV (FIG. 14A-B) [1] | Kcat ([2]; 30° C., pH 7) | Km ([2]; 30° C., pH 7) | Vmax ([2]; 30° C., pH 7) | Kcat ([2]; 33° C., pH 6.8) | Km ([2]; 33° C., pH 6.8) | Vmax ([2]; 33° C., pH 6.8) | further results
1 | B1 | 105% | 139% | 2.3 mM | 832 µM | 2.88 mM | 834 µM | decreasing catalytic efficiencies | 555 s⁻¹ | 566 µM | 1.63 mM/s | 491 s⁻¹ | 407 µM | 1.45 mM/s | isobutanol concentration compared with the WT enzyme, in words (Isobutanol Production): significantly more isobutanol than the WT enzyme; KM for acetolactate, comparison of the variants [2, 6]: best (lowest)
2 | B2 | 104% | 157% | 2.45 mM | 996 µM | 3.03 mM | 1050 µM | highest catalytic efficiencies | 717 s⁻¹ | 683 µM | 2.11 mM/s | 647 s⁻¹ | 533 µM | 1.90 mM/s | expected yield (printed: yeast efficiency) [3]: 0.35 g/g; Ki for DHIV, comparison of the variants [1, 6]: best (highest); rate (kcat or VMAX), comparison of the variants [2, 6]: best (highest)
3 | B3 | 103% | 118% | 2.04 mM | 821 µM | 2.37 mM | 801 µM | decreasing catalytic efficiencies | 602 s⁻¹ | 673 µM | 1.77 mM/s | 538 s⁻¹ | 510 µM | 1.58 mM/s | 
4 | B4 | 100% |  | 1.81 mM | 752 µM | 2.6 mM | 768 µM |  | 442 s⁻¹ | 711 µM | 1.30 mM/s | 382 s⁻¹ | 419 µM | 1.12 mM/s | Ki [4]: 1.1 mM; Kcat [5]: 2.6 s⁻¹; Km [5]: 430 µM
